For the assay, the target named is human 4-1BB (human) (UniProt Q07011). Kind of assay: flow cytometry; dilution series of HEK293T supernatant on Jurkat TPR cells expressing human 4-1BB.
human 4-1BB (human), sequence (Q07011 24-255): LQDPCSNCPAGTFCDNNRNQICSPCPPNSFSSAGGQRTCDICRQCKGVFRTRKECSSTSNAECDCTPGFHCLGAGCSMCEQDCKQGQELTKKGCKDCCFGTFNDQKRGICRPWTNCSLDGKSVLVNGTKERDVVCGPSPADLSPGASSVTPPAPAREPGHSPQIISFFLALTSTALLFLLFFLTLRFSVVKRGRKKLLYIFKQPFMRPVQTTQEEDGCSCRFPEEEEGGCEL

B1: s4-1BBL-TriXV (ligand)
chain: GSGSNWSHPQFEKGGSGGHHHHHHGGSGGGSRNLVTAFSNMDDMLQKAHLVIEGTFIYLRDSTEFFIRVRDGWKKLQLGELIPIPADSGSLDLRQGMFAQLVAQNVLLIDGPLSWYSDPGLAGVSLTGGLSYKEDTKELVVAKAGVYYVFFQLELRRVVAGEGSGSVSLALHLQPLRSAAGAAALALTVDLPPASSEARNSAFGFQGRLLHLSAGQRLGVHLHTEARARHAWQLTQGATVLGLFRVTPEIPAGLPSPRSE
The molecule B1 yielded a supernatant dilution at which binding is no longer detectable (supernatant dilution (1:x)) of 512.

B2: Triple-s4-1BBL-TriXVIII^LL (ligand)
chain: GSGSNWSHPQFEKGGSGGHHHHHHGGSGGGSSGAGGSGGSSGSDGASGSGVRLWATRQAMLGQVHEVPEGWLIFVAEQEELYVRVQNGFRKVQLEARTPLPRGTDNEGSLDLRQGMFAQLVAQNVLLIDGPLSWYSDPGLAGVSLTGGLSYKEDTKELVVAKAGVYYVFFQLELRRVVAGEGSGSVSLALHLQPLRSAAGAAALALTVDLPPASSEARNSAFGFQGRLLHLSAGQRLGVHLHTEARARHAWQLTQGATVLGLFRVTPEIPAGLPSPRSEGGGGSGGGGSGGGGSLDLRQGMFAQLVAQNVLLIDGPLSWYSDPGLAGVSLTGGLSYKEDTKELVVAKAGVYYVFFQLELRRVVAGEGSGSVSLALHLQPLRSAAGAAALALTVDLPPASSEARNSAFGFQGRLLHLSAGQRLGVHLHTEARARHAWQLTQGATVLGLFRVTPEIPAGLPSPRSEGGGGSGGGGSGGGGSLDLRQGMFAQLVAQNVLLIDGPLSWYSDPGLAGVSLTGGLSYKEDTKELVVAKAGVYYVFFQLELRRVVAGEGSGSVSLALHLQPLRSAAGAAALALTVDLPPASSEARNSAFGFQGRLLHLSAGQRLGVHLHTEARARHAWQLTQGATVLGLFRVTPEIPAGLPSPRSE
With B2, the supernatant dilution at which binding is no longer detectable (supernatant dilution (1:x)) came to 256.
